In the supplement of paper PMC10567573 one finds protein stability index data, which are given here for 53 sequences.

± gives the standard deviation.

The series in a line: protein stability index of a GFP-peptide fusion (GPS, HEK-293T) (PSI 1-6); higher = more stable.
The mark [1] stands for this setting: treatment: DMSO, c terminus: a fixed tail appended.
[2] abbreviates: treatment: MLN4924 1 uM, 8 h, c terminus: a fixed tail appended.
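Also: 24-mer peptide tiles fused after GFP, lentivirally expressed, FACS-sorted into six equal bins by GFP/DsRed ratio, decoded by Illumina sequencing, PSI is the read-weighted mean bin number.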

Take CMVGLLLIALLTWGYIRYSGQYRE [ATL3]: the protein stability index reads like this: under setting [1], 2.95 ± 0.25; under setting [2], 3.04 ± 0.36.

On to CSEGFLINEDLKTCSRVDYCLLSD [MATN2], for which the protein stability index runs as follows: under setting [1], 2.99 ± 0.44; under setting [2], 3.28 ± 0.14.

For the sequence CWLPLLAGLLPPVPAQKFSALTFL [SMOC2], the protein stability index reads like this: under setting [1], 3.54 ± 0.15; under setting [2], 2.82 ± 0.53.

For the sequence CYLSFPDSNSGCLGDTQFCFRFRQ [DENND6A], the protein stability index under setting [1] came to 2.25 ± 0.28 and the protein stability index under setting [2] is 2.4 ± 0.63.

For the sequence CYSSRPLLCWSVWWALSTCGYFQV [SLC19A2], the protein stability index reads like this: under setting [1], 2.53 ± 0.19; under setting [2], 3.55 ± 0.31.

As for DAIRGKVGYTRGLHVWQITWAMRQ [SPSB1], the protein stability index was 2.38 ± 0.54 under setting [1] and 2.36 ± 0.42 under setting [2].

With DCMGIDRQHIPDTYLCERCQPRNL [KMT2E], the protein stability index is, setting by setting: under setting [1], 3.13 ± 0.33; under setting [2], 3.4 ± 0.4.

For DDIRKGIVLLEELLPKGSKEEQRD [FIS1], the protein stability index is 4.63 ± 0.43 under setting [1] and 4.6 ± 0.27 under setting [2].

In turn, DDRKLAALLKFHTLDSYEDKQKLK [YJU2B] showed a protein stability index under setting [1] of 3.97 ± 0.28 and a protein stability index under setting [2] of 4.12 ± 0.27.

On to DEEEDFFLRGPSGPRFGPRNDKIK [VAMP4], for which the protein stability index is, setting by setting: under setting [1], 4.53 ± 0.26; under setting [2], 4.62 ± 0.26.

On to DEKQCKQCANKVLQHMKAVQADQE [LRRC59], for which the protein stability index under setting [1] amounted to 4.78 ± 0.19 and the protein stability index under setting [2] amounted to 4.63 ± 0.22.

For the sequence DFDGKLKDIAGEFKEQLQALIPYV [ATL3], the protein stability index was 2.38 ± 0.47 under setting [1] and 2.94 ± 0.31 under setting [2].

In the case of DFLLRAASFDVCESVDEAGGSGPA [RHOBTB2], the protein stability index turned out to be 3.96 ± 0.16 under setting [1] and 4.05 ± 0.29 under setting [2].

Turning to DFRTKYETELSLRQLVEADINGLR [KRT36], the protein stability index is 3.15 ± 0.15 under setting [1] and 3.38 ± 0.17 under setting [2].

For the sequence DFSRCDMDGATLCNCALEELRLVF [ELF3], the protein stability index runs as follows: under setting [1], 2.37 ± 0.15; under setting [2], 2.11 ± 0.32.

Regarding DGLVGMAIVGGMALGVAGLAGLIG [FIS1], the protein stability index runs as follows: under setting [1], 2.33 ± 0.6; under setting [2], 2.09 ± 0.5.

As for DGYCMFNHVAVAARYAQQKHRIRR [HDAC6], the protein stability index was 3.05 ± 0.42 under setting [1] and 3.53 ± 0.2 under setting [2].

DHNEAMKPEEPPQNLLREKIMKLP [PCMTD1]: the protein stability index is 4.63 ± 0.32 under setting [1] and 4.66 ± 0.12 under setting [2].

DHSFSLELGSEVDITEGDRKPDYT [ATF4]: the protein stability index worked out at 5.2 ± 0.29 under setting [1] and 5.34 ± 0.18 under setting [2].

Regarding DHYAAIKKAWDDLKKYLEPRCPRM [FBXO3], the protein stability index by setting is: under setting [1], 2.55 ± 0.22; under setting [2], 2.69 ± 0.064.

Take DIDKKHLVLLRDGRTLIGFLRSID [LSM1]: the protein stability index is, setting by setting: under setting [1], 2.3 ± 0.31; under setting [2], 2.25 ± 0.18.

For DIHGLRKVIDDTNITRLQLETEIE [KRT18], the protein stability index runs as follows: under setting [1], 4.28 ± 0.28; under setting [2], 4.16 ± 0.46.

For the sequence DINREQLNDIFHLLKSHTNVLSVN [TPH1], the protein stability index runs as follows: under setting [1], 2.18 ± 0.17; under setting [2], 2.27 ± 0.23.

In the case of DIREEIRKVVQSLEQTAREILTLL [TSN], the protein stability index by setting is: under setting [1], 3.73 ± 0.94; under setting [2], 3.57 ± 0.3.

For the sequence DITQEEYGEFYKSLTNDWEDHLAV [HSP90AB1], the protein stability index reads like this: under setting [1], 3.85 ± 0.17; under setting [2], 4.01 ± 0.22.

As to DKGEKLLRCKLAAFYRLADLFGWS [ADD1], the protein stability index is 2.59 ± 0.64 under setting [1] and 2.28 ± 0.24 under setting [2].

Regarding DKPGTTQIVQLTQQVDTNISVILP [DENND6A], the protein stability index reads like this: under setting [1], 3.48 ± 0.23; under setting [2], 3.68 ± 0.38.

Regarding DKVRALEEANADLEVKIRDWYQRQ [KRT16], the protein stability index reads like this: under setting [1], 4.01 ± 0.11; under setting [2], 4.04 ± 0.27.

Turning to DKYCPLLIKEGGMPLLRDIIKMAT [ZER1], the protein stability index reads like this: under setting [1], 2.46 ± 0.3; under setting [2], 2.22 ± 0.31.

For the sequence DLDPLELIALANRFCLPHLVALAE [RHOBTB1], the protein stability index is, setting by setting: under setting [1], 2.5 ± 0.11; under setting [2], 2.14 ± 0.2.

Regarding DLPVVQGSSSFSLKGYPSLMRSQS [TRIM29], the protein stability index runs as follows: under setting [1], 3.03 ± 0.25; under setting [2], 3.3 ± 0.24.

With DLVTGGELFEDIVAREYYSEADAS [CAMK2B], the protein stability index runs as follows: under setting [1], 4.73 ± 0.2; under setting [2], 4.52 ± 0.34.

In turn, DMKVNPIQGLASKWDYEKNEWKK [COX4I1] returned a protein stability index (treatment: DMSO, c terminus: native) of 4.45 ± 0.27 and a protein stability index (treatment: MLN4924 1 uM, 8 h, c terminus: native) of 4.72 ± 0.24.

With DMSYSIRHSISMPAMRNSPTFKSF [TPD52L1], the protein stability index runs as follows: under setting [1], 2.94 ± 0.24; under setting [2], 2.95 ± 0.32.

DNEDSELNGDYGENIYPYEEDKDE [MIA2] registered a protein stability index under setting [1] of 5.37 ± 0.24 and a protein stability index under setting [2] of 4.86 ± 1.1.

With DNVAYARAFNTDHQTQLLYQASAM [RAD51], the protein stability index was found to be 3.12 ± 0.047 under setting [1] and 3.27 ± 0.15 under setting [2].

As for DQIGSEIIEELGEQRDQLERTKSR [VTI1B], the protein stability index was determined as 5.53 ± 0.24 under setting [1] and 5.47 ± 0.37 under setting [2].

In the case of DQTALSLEECLRLLEATCPFGENA [NFE2L1], the protein stability index by setting is: under setting [1], 3.31 ± 0.72; under setting [2], 3.8 ± 0.74.

For the sequence DRDGTINLSEFQHVISRSPDFASS [CIB1], the protein stability index is, setting by setting: under setting [1], 4.31 ± 0.28; under setting [2], 4.31 ± 0.24.

Turning to DRLTTFQENQARTHVLSKEVQHLR [LRRC45], the protein stability index by setting is: under setting [1], 4.12 ± 0.13; under setting [2], 4.29 ± 0.16.

As to DRVGTIKSKVVGDRENGSDNLPSS [TPD52L2], the protein stability index is, setting by setting: under setting [1], 5.17 ± 0.29; under setting [2], 5.17 ± 0.18.

In the case of DSFPEGPERLHAIKEQLIQEGLLD [HDAC6], the protein stability index was 4.94 ± 0.49 under setting [1] and 4.76 ± 0.27 under setting [2].

For DSHLGGNARGMGIRSPRPASVATW [CTBP1-DT], the protein stability index under setting [1] stood at 3.56 ± 0.24 and the protein stability index under setting [2] worked out at 3.63 ± 0.2.

Turning to DSLKPEQLDIEEEGRPGAATFHVG [TFE3], the protein stability index runs as follows: under setting [1], 5.38 ± 0.093; under setting [2], 4.96 ± 0.4.

For the sequence DSMTSQAKPEALSSPKFREEAAFP [ELOA2], the protein stability index by setting is: under setting [1], 4.9 ± 0.24; under setting [2], 4.89 ± 0.13.

In the case of DSSWYEPSAELVQTRMAVSLTAAE [ZNF232], the protein stability index runs as follows: under setting [1], 4.26 ± 0.068; under setting [2], 4.37 ± 0.29.

On to DSVDAQNICHVWHMNVEALPEWIS [RNF180], for which the protein stability index is, setting by setting: under setting [1], 2.44 ± 0.34; under setting [2], 2.62 ± 0.38.

Consider DTDKLLNSASDPSLKDGLSDSDSE [PSD2], for which the protein stability index under setting [1] came out at 5.45 ± 0.36 and the protein stability index under setting [2] came out at 5.57 ± 0.074.

Take DTLGLGKTRRKTSARDASPTPSTD [NCK2]: the protein stability index under setting [1] was 5.36 ± 0.25 and the protein stability index under setting [2] is 5.15 ± 0.34.

As to DTLQNDYFAIKQEVVTPDNMCMGR [ETS1], the protein stability index is, setting by setting: under setting [1], 3.65 ± 0.31; under setting [2], 4.05 ± 0.45.

In the case of DTLRRRLLAPEAGSHPQQTQKLEE [TOR1AIP2], the protein stability index is 5.35 ± 0.3 under setting [1] and 5.41 ± 0.15 under setting [2].

In the case of DTTEEVDHKPKLCRLAKGENGYGF [PDZK1], the protein stability index was found to be 3.64 ± 0.32 under setting [1] and 3.79 ± 0.38 under setting [2].

DTYNDMATLFFNPQESAILQLFHQ [CLCN6]: the protein stability index worked out at 2.6 ± 0.34 under setting [1] and 2.43 ± 0.21 under setting [2].
